In the supplement of paper PMC10126150:
± gives the standard deviation of the averaged measurements.

system: ATP; test: switch fluorescence ratio, 500 uM ATP over buffer (Cy3 cluster intensity, sum of 5 cycles each) (fold (ratio)); higher = stronger signal-on switching upon ATP binding; sequences stand for … in TCGTCGGCAGCGTCAGATGTGTATAAGAGACAGTTTTTTTTTTTTTTTTTTTTTTTTT…TC; conditions: aptamer strand: ATP DNA aptamer (quencher-CACCTGGGGGAGTATTGCGGAGGAAGG + anchor), 100 nM annealed; ATP concentration: 500 uM
Method in brief: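 The quencher-labelled ATP aptamer, at 100 nM, was annealed to Cy3-labelled switching-strand clusters on a modified Illumina MiSeq flow-cell. The clusters were imaged in selection buffer, then after 15 min with 500 uM ATP at 22 °C, and this buffer/ATP cycle ran five times with NaOH stripping and re-annealing between runs. Per-cluster fluorescence ratios, summed target-cycle over summed buffer-cycle Cy3 intensity, were averaged per switch-domain sequence. Clusters outside 100-1000 RFU were excluded.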
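Note: ATP exposure 15 min at 22 °C before imaging.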

Sequence	switch fluorescence ratio
GGTGACACTT	0.996 ± 0.033
GGTGACGATT	0.9712 ± 0.0065
GGTGACGCTG	0.992 ± 0.031
GGTGACTGGG	0.903 ± 0.042
GGTGAGCTAG	0.9866 ± 0.0034
GGTGATAGTG	0.983 ± 0.024
GGTGATGAAA	0.998 ± 0.025
GGTGATGGTT	0.986 ± 0.047
GGTGATGTGG	0.986 ± 0.022
GGTGATTGAC	1.18 ± 0.3
GGTGCAATGA	1.956 ± 0.0021
GGTGCAGCTG	0.981 ± 0.016
GGTGCAGGAG	0.999 ± 0.035
GGTGCATATA	1.05 ± 0.032
GGTGCGCATA	1.03 ± 0.019
GGTGCGCATG	0.994 ± 0.011
GGTGCTAGAA	0.9789 ± 0.0083
GGTGCTAGTG	0.999 ± 0.015
GGTGCTGTGT	1.01 ± 0.039
GGTGGAAAAG	1 ± 0.023
GGTGGCGGAT	1.07 ± 0.033
GGTGGCGTTA	0.999 ± 0.016
GGTGGCTTTT	1.02 ± 0.099
GGTGGGATGA	0.965 ± 0.015
GGTGGGCGGA	1.01 ± 0.029

Sequence	switch fluorescence ratio
GGTGGGGAAC	1.03 ± 0.068
GGTGGGGAAT	0.979 ± 0.022
GGTGGGGATG	0.984 ± 0.027
GGTGGGGCTT	0.998 ± 0.025
GGTGGGGGTG	0.998 ± 0.031
GGTGTAATAG	1.04 ± 0.036
GGTGTAGAAC	1 ± 0.049
GGTGTAGCGA	1.03 ± 0.026
GGTGTAGGCA	0.987 ± 0.03
GGTGTAGGGA	0.992 ± 0.013
GGTGTAGGGG	1.04 ± 0.074
GGTGTAGTTG	0.999 ± 0.037
GGTGTATAAA	0.967 ± 0.054
GGTGTATAGG	1.01 ± 0.011
GGTGTATGAA	0.994 ± 0.029
GGTGTCCGGT	0.998 ± 0.03
GGTGTCGGGT	0.99 ± 0.012
GGTGTCTGGG	0.984 ± 0.074
GGTGTCTGGT	1.001 ± 0.0061
GGTGTCTTAC	1.01 ± 0.029
GGTGTGACCA	1.02 ± 0.015
GGTGTGCCAA	1 ± 0.022
GGTGTGCGGA	1.02 ± 0.024
GGTGTGCGTC	1 ± 0.026
GGTGTGGCTA	0.989 ± 0.012

Sequence	switch fluorescence ratio
GGTGTGGGGC	1.01 ± 0.024
GGTGTGGTGC	1.02 ± 0.012
GGTGTGTACG	1.28 ± 0.41
GGTGTGTGCT	0.989 ± 0.049
GGTGTGTGTC	1.02 ± 0.02
GGTGTGTTTT	0.981 ± 0.048
GGTGTTAATT	0.9888 ± 0.0093
GGTGTTAGTG	0.977 ± 0.023
GGTGTTATAT	1.02 ± 0.04
GGTGTTGATC	1.03 ± 0.025
GGTGTTTCGC	0.994 ± 0.0095
GGTGTTTCGG	0.966 ± 0.014
GGTGTTTGAC	0.999 ± 0.011
GGTGTTTTCG	0.998 ± 0.03
GGTTAAAGAA	1.004 ± 0.0082
GGTTAATAGG	0.99 ± 0.013
GGTTACAATT	0.982 ± 0.032
GGTTACACTG	1.03 ± 0.025
GGTTACTAAG	1.01 ± 0.017
GGTTAGAAAT	0.98 ± 0.016
GGTTAGAGTA	1.01 ± 0.025
GGTTAGATGG	0.978 ± 0.043
GGTTAGGAAG	1.005 ± 0.0037
GGTTAGGCGG	0.954 ± 0.015
GGTTAGGGGT	1.08 ± 0.24

Sequence	switch fluorescence ratio
GGTTATAATC	0.969 ± 0.07
GGTTATAATT	1.004 ± 0.0011
GGTTATACGA	1.034 ± 0.0054
GGTTATATGT	1.02 ± 0.021
GGTTATGAAT	1 ± 0.015
GGTTATGGTG	1.02 ± 0.02
GGTTATTATG	0.978 ± 0.039
GGTTATTGAG	0.9799 ± 0.0044
GGTTCAAGTT	0.9816 ± 0.0095
GGTTCACGGC	1.03 ± 0.015
GGTTCACGGT	0.994 ± 0.026
GGTTCAGAGA	0.973 ± 0.033
GGTTCATTCT	0.9917 ± 0.0062
GGTTCCACGC	1.09 ± 0.025
GGTTCCCACT	0.9919 ± 0.0045
GGTTCGCGGT	1.02 ± 0.03
GGTTCTACAT	0.998 ± 0.03
GGTTCTGTGG	1.03 ± 0.0094
GGTTCTGTGT	0.99 ± 0.012
GGTTGAAGTT	0.986 ± 0.0077
GGTTGAATGT	0.9843 ± 0.0074
GGTTGAATTA	0.979 ± 0.051
GGTTGACATA	1.01 ± 0.025
GGTTGACCTG	1 ± 0.032
GGTTGAGTGT	0.9836 ± 0.0046
